# Source: patent US20260193348A1 (ANTENGENE BIOLOGICS, published 2026)
# Residue numbers refer to the chain shown, from its start. In names and notes the source's numbering stands.
# B1: Bis-40E9-L2H3-D105R.H (bispecific antibody)
# heavy 1: not shown
# heavy 2: EVQLVQSGAEVKKPGASVKVSCKASGYTFTSYVIHWVRQAPGQGLEWMGYFNPYNDGTKYNEEFKGRVTLTSDKSTSTAYMELRSLRSDDTAVYYCARGGVRRYFDVWGQGTTVTVSSASTKGPSVFPLAPSSKSTSGGTAALGCLVKDYFPEPVTVSWNSGALTSGVHTFPAVLQSSGLYSLSSVVTVPSSSLGTQTYICNVNHKPSNTKVDKKVEPKSCGGGGSGGGGSEVQLVQSGAEVKKPGSSVKVSCKASGYTFSSYVIHWVRQAPGQCLEWMGYINPYNDVIKYNEKFKGRVTLTSDKSTSTAYMELSSLRSEDTAVYYCARDSYYSYRGFAYWGQGTLVTVSSGGGGSGGGGSGGGGSGGGGSEIVLTQSPDFQSVTPKEKVTITCSASSSVSYMHWYQQKPDQSPKRLIYDTSKLASGVPSRFSGSGSGTDFTLTINSLEAEDAATYYCQQWSSNPPTFGCGTKVEIKGGGGSGGGGSDKTHTCPPCPAPEAAGGPSVFLFPPKPKDTLMISRTPEVTCVVVDVSHEDPEVKFNWYVDGVEVHNAKTKPREEQYNSTYRVVSVLTVLHQDWLNGKEYKCKVSNKALPAPIEKTISKAKGQPREPQVCTLPPSREEMTKNQVSLSCAVKGFYPSDIAVEWESNGQPENNYKTTPPVLDSDGSFFLVSKLTVDKSRWQQGNVFSCSVMHEALHNHYTQKSLSLSPGK
# light: DIQMTQSPSSLSASVGDRVTITCRASQDIGSNLNWLQQKPGKAIKRLIYATFGLDSGVPSRFSGSRSGTDFTLTISSLQPEDFATYYCQQYASFPYTFGGGTKVEIKRTVAAPSVFIFPPSDEQLKSGTASVVCLLNNFYPREAKVQWKVDNALQSGNSQESVTEQDSKDSTYSLSSTLTLSKADYEKHKVYACEVTHQGLSSPVTKSFNRGEC
# notes: Fab-scFv-Fab (2+1), LALA
# B2: Bis-40E9-L2H3-Y101F.H (bispecific antibody)
# heavy 1: not shown
# heavy 2: B1 heavy 2 with Y332F, R336D
# light: B1 light
# notes: Fab-scFv-Fab (2+1), LALA
# B3: Bis-40E9-L2H1 (bispecific antibody)
# heavy: EVQLVQSGAEVKKPGASVKVSCKASGYTFTSYVIHWVRQAPGQGLEWMGYFNPYNDGTKYNEEFKGRVTLTSDKSTSTAYMELRSLRSDDTAVYYCARGGVRRYFDVWGQGTTVTVSS
# heavy (part 1 of 2): B3 heavy
# heavy (part 2 of 2): GGGGSGGGGSEVQLVQSGAEVKKPGSSVKVSCKASGGTFSSYVIHWVRQAPGQCLEWMGYINPYNDVIKYNEKFKGRVTITADKSTSTAYMELSSLRSEDTAVYYCARDSYYSYDGFAYWGQGTLVTVSSGGGGSGGGGSGGGGSGGGGSEIVLTQSPDFQSVTPKEKVTITCSASSSVSYMHWYQQKPDQSPKRLIYDTSKLASGVPSRFSGSGSGTDFTLTINSLEAEDAATYYCQQWSSNPPTFGCGTKVEIKGGGGSGGGGS
# light: DIQMTQSPSSLSASVGDRVTITCRASQDIGSNLNWLQQKPGKAIKRLIYATFGLDSGVPSRFSGSRSGTDFTLTISSLQPEDFATYYCQQYASFPYTFGGGTKVEIK
# notes: Fab-scFv-Fab (2+1), LALA; not shown: CH1; CL; CH2-CH3 with L234A, L235A; heavy chain constant region with L234A, L235A
# B4: Bis-40E9-L2H3-G106A.H (bispecific antibody)
# heavy: B3 heavy
# heavy (part 1 of 2): B3 heavy
# heavy (part 2 of 2): B3 heavy (part 2 of 2) with G37Y, I80L, A82S, G116A
# light: B3 light
# notes: as for B3
# B5: Bis-40E9-L3H1 (bispecific antibody)
# heavy: B3 heavy
# heavy (part 1 of 2): B3 heavy
# heavy (part 2 of 2): B3 heavy (part 2 of 2) with L196W, F220Y
# light: B3 light
# notes: as for B3
# B6: Bis-40E9-L2H4 (bispecific antibody)
# heavy: B3 heavy
# heavy (part 1 of 2): B3 heavy
# heavy (part 2 of 2): B3 heavy (part 2 of 2) with G37Y, M58I, V78A, I80L, A82S
# light: B3 light
# notes: as for B3
# B7: Bis-40E9-L2H3-D99E.H (bispecific antibody)
# heavy: B3 heavy
# heavy (part 1 of 2): B3 heavy
# heavy (part 2 of 2): B3 heavy (part 2 of 2) with G37Y, I80L, A82S, D109E
# light: B3 light
# notes: as for B3
# Target: T1, CD3 (Cluster of Differentiation 3 protein), human, on T cells / Jurkat cells (human, UniProt P07766 23-207; P04234 22-171; P09693 23-182)
# T1 construct: whole, on cells; part of the TCR-CD3 complex; also called human CD3
# T1 sequence (P07766 23-207, chain 1 of 3): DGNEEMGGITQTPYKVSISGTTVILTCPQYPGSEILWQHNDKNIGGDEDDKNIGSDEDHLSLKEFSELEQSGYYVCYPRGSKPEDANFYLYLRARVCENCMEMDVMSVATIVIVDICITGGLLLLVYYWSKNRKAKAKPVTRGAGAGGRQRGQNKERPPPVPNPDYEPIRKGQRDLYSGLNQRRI
# T1 sequence (P04234 22-171, chain 2 of 3): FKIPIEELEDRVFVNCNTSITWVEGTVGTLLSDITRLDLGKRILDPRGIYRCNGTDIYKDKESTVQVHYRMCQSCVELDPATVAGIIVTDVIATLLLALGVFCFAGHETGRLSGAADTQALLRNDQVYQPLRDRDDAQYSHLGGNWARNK
# T1 sequence (P09693 23-182, chain 3 of 3): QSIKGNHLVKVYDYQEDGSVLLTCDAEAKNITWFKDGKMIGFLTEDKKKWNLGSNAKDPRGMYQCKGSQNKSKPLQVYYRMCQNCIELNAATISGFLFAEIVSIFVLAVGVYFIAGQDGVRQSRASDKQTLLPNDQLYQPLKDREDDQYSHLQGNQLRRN
# Assay: FACS, Jurkat cells, antibody at 50 µg/ml
# Procedure: (§1) The binding affinities of the generated humanized Fab-scFv-Fab bispecific antibodies were determined by FACS analysis. […] (a) Jurkat cells were washed by Staining Buffer (PBS+1% BSA) in round bottom 96-well plate. [0833] (b) Antibody dilutions and cells were added to each well, incubated at 4 degrees for 1 hour. [0834] (c) Cells were spined down at 300 g for 3 minutes, and the supernatants were discarded. [0835] (d) Cells were washed with Staining Buffer. […] (e) Step (d) was repeated and the cells were incubated for 0.5 hours at 4 degrees with secondary antibody in Staining Buffer. [0837] (f) After incubation, step (d)-(e) were repeated. […] (g) Staining Buffer was added and fluorescence signals were recorded by flow cytometry.
row,Binder,MFI (50 µg/ml)
1,B1,247 MFI
2,B2,207 MFI
3,B3,113 MFI
4,B4,114 MFI
5,B5,142 MFI
6,B6,328 MFI
7,B7,128 MFI

# Target: T2, GPRC5D (G-protein coupled receptor family C group 5 member D), human, on multiple myeloma cell lines (human, UniProt Q9NZD1 1-345)
# T2 construct: whole, on cells; Target as carried by MM.1S, MOLP-8, L363 and RPMI8226 cells
# T2 sequence (Q9NZD1 whole entry): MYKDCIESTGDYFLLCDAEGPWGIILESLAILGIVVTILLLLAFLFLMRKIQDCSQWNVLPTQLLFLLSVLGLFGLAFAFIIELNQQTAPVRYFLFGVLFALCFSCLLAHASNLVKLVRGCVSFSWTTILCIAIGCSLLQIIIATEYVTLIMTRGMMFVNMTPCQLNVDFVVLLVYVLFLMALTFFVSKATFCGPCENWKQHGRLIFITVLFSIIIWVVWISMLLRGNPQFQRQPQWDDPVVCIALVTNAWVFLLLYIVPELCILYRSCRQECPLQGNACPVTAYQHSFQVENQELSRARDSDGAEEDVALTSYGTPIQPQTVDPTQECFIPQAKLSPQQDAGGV
# Assay: FACS, MOLP-8 cells
# Procedure: as §1
# (§2) The binding affinities of the generated humanized Fab-scFv-Fab bispecific antibodies to different multiple myeloma cell lines were evaluated by FACS analysis. The protocol for FACS analysis is identical to that described in Example 3.2, except that different cells were used in this example, i.e., multiple myeloma cell lines (MM.1S, […], L363 and RPMI 8226) were used in this example.
Binder,EC50,Top (MFI)
B1,0.21 nM,1090 MFI
B2,0.466 nM,876 MFI

# Target: T2, GPRC5D (G-protein coupled receptor …)
# Assay: FACS, MM.1S cells
# Procedure: as §1, §2
Binder,EC50,Top (MFI)
B1,6.16 nM,1070 MFI
B2,10.1 nM,1150 MFI

# Target: T2, GPRC5D (G-protein coupled receptor …)
# Assay: cell-based or functional assay
Binder,"EC50 (nM), luciferase assay, L363","EC50 (nM), luciferase assay, MM.1S","EC50 (nM), luciferase assay, MOLP-8","Top (RLU), luciferase assay, L363","Top (RLU), luciferase assay, MM.1S","Top (RLU), luciferase assay, MOLP-8","EC50 (nM), luciferase assay, RPMI8226","Top (RLU), luciferase assay, RPMI8226"
B1,0.0397 nM,0.423 nM,0.0423 nM,942 RLU,5240 RLU,1080 RLU,,
B2,0.155 nM,0.0398 nM,,1600 RLU,5630 RLU,1470 RLU,,
B3,0.258 nM,0.18 nM,0.00654 nM,898 RLU,2510 RLU,1190 RLU,1.05 nM,261 RLU
B4,0.187 nM,0.268 nM,0.116 nM,277 RLU,2910 RLU,262 RLU,1.58 nM,101 RLU
B5,1.71 nM,0.0332 nM,0.072 nM,2760 RLU,1710 RLU,150 RLU,,
B6,0.206 nM,0.0592 nM,0.000513 nM,1430 RLU,1700 RLU,213 RLU,,
B7,0.19 nM,0.0719 nM,0.906 nM,584 RLU,1720 RLU,118 RLU,0.878 nM,113 RLU

# Target: T2, GPRC5D (G-protein coupled receptor …)
# Assay: cell-based or functional assay
# Remark: another data set of the same source
Binder,"IC50 (nM), T-Cell Dependent Cytotoxicity, MM.1S","IC50 (nM), T-Cell Dependent Cytotoxicity, MOLP-8","IC50 (nM), T-Cell Dependent Cytotoxicity, RPMI8226","Top (%), T-Cell Dependent Cytotoxicity, MM.1S","Top (%), T-Cell Dependent Cytotoxicity, MOLP-8","Top (%), T-Cell Dependent Cytotoxicity, RPMI8226"
B1,0.00579 nM,0.00463 nM,0.0366 nM,75.7%,70.1%,12.4%
B2,0.00723 nM,0.00499 nM,0.0226 nM,62.8%,77.1%,12.2%
B3,0.0437 nM,0.0069 nM,0.356 nM,56.3%,58.3%,25.9%
B4,0.057 nM,0.0068 nM,4.04 nM,67.4%,54.3%,5.69%
B5,0.0203 nM,0.00244 nM,0.292 nM,74.9%,68.3%,13.6%
B6,0.0125 nM,0.00239 nM,0.381 nM,69%,63.9%,20.4%
B7,0.0244 nM,0.00776 nM,0.406 nM,57.2%,68.7%,13.4%
